# In the supplement of paper PMC10567573:
# Experiment: protein stability index of a GFP-peptide fusion (GPS, HEK-293T) (PSI 1-6); higher = more stable
# 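Further: lentivirally expressed fusions sorted by FACS into six bins by GFP to DsRed ratio, PSI derived from sequencing read proportions per bin multiplied by bin number.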
protein,measurement,setting,value
YPSYKVREKIETVKYPTYPEAEK,protein stability index,"parent: IOH44218_94, c terminus: native",4.2
FQGSMRIFTKKLPHPDLPAEEKEQ,protein stability index,"parent: IOH45672_59, c terminus: a fixed tail appended",2.02
QEKKLSFIEALIQQYQEQLDKSTK,protein stability index,"parent: IOH45956_40, c terminus: a fixed tail appended",2.57
ANPYWTSRGSSVSMSGGRFRCPTC,protein stability index,"parent: IOH45956_10, c terminus: a fixed tail appended",1.99
PDDKLTLFCEVSVVQDSVNISGHT,protein stability index,"parent: IOH45687_26, c terminus: a fixed tail appended",2.06
RAGHHPNQYATCRLCGRQVSRGPG,protein stability index,"parent: IOH45853_12, c terminus: a fixed tail appended",2.02
KTIEELRDKILTATIENNRVILEI,protein stability index,"parent: IOH51951_27, c terminus: a fixed tail appended",2.97
LCKDCQVIDGRNVTVTDVDIVFSK [TPPP WT],protein stability index,"parent: IOH43477_14, c terminus: a fixed tail appended",2.25
TLSEAYIQIWKRRDNDETNQQGA,protein stability index,"parent: IOH45672_93, c terminus: native",2.22
KLLVVDRTRRLGNMKNGANDVKHH [PRKX WT],protein stability index,"parent: IOH45425_47, c terminus: a fixed tail appended",3.15
CFITLTTIGFGDYVALQTKGALQK,protein stability index,"parent: IOH45737_33, c terminus: a fixed tail appended",2.94
VTIKHVACGDFFTACLTDRGIIMT,protein stability index,"parent: IOH45357_66, c terminus: a fixed tail appended",2.6
TPGIDLTRVLAEMREQYEAMAERN,protein stability index,"parent: IOH51951_45, c terminus: a fixed tail appended",3.68
IYPVWTYSYLVLLFPVFLATDYLR,protein stability index,"parent: IOH52104_13, c terminus: a fixed tail appended",2.89
YVIGGRNETGYLSSVECYNLETNE [KLHL14 WT],protein stability index,"parent: IOH52486_72, c terminus: a fixed tail appended",1.96
DYFPSEDFYRCGYCKNESGSRSNG,protein stability index,"parent: IOH45551_3, c terminus: a fixed tail appended",2.1
FHHIPSTCQRVNGIKVQNGGIVTD,protein stability index,"parent: IOH52104_37, c terminus: a fixed tail appended",1.8
YTFGSNQHGQLGTNTRRGSRAPCK,protein stability index,"parent: IOH45357_98, c terminus: a fixed tail appended",3.79
QVPVVDFQAELRQAFLAETPRGG [SNURF WT],protein stability index,"parent: IOH45840_9, c terminus: native",2.99
LWVQGDIFRSKLKNRPSSEGSINK,protein stability index,"parent: IOH46617_56, c terminus: a fixed tail appended",2.28
NWRYATGGWETVFRPVSETCTDRS,protein stability index,"parent: IOH44218_42, c terminus: a fixed tail appended",1.78
HHVADAYTSSQKVSPIQIDGAGRT,protein stability index,"parent: IOH51997_53, c terminus: a fixed tail appended",3.46
ITDSYPVVKRREGPAGHSKGELAP [POLD4 WT],protein stability index,"parent: IOH45937_2, c terminus: a fixed tail appended",2.96
YTGRAPNLDKMADNLLAAADKYAL,protein stability index,"parent: IOH45687_44, c terminus: a fixed tail appended",2.12
FASLRPSEPFLTPYLLGPDKNLTE,protein stability index,"parent: IOH52104_8, c terminus: a fixed tail appended",2
YGGGLGGGFGGGFAGGFVDFGACD,protein stability index,"parent: IOH51951_13, c terminus: a fixed tail appended",1.83
YQQIKAGAYDFPSPEWDTVTPEAK [CAMK2B WT],protein stability index,"parent: IOH45432_38, c terminus: a fixed tail appended",3.58
AKREETKAMESQRAYRFVQGKDWG,protein stability index,"parent: IOH45687_19, c terminus: a fixed tail appended",2.71
DVAGNLDYKALSYVITHGEEKEE,protein stability index,"parent: IOH44370_26, c terminus: native",2.21
AGQEGEDTLRRRLLAPEAGSHPQQ,protein stability index,"parent: IOH51997_29, c terminus: a fixed tail appended",2.33
TSSASVTTTSNASGRRTSDVRRP,protein stability index,"parent: IOH51951_76, c terminus: native",2.45
GPHPKSKIENGYPLHAPEAYFPYF,protein stability index,"parent: IOH46617_33, c terminus: a fixed tail appended",2.25
YKYCDHENAAFKDVALVLTVLLEE,protein stability index,"parent: IOH51997_64, c terminus: a fixed tail appended",2.27
YVRDRADLNKDKPVIPAAALAGYT,protein stability index,"parent: IOH46473_52, c terminus: a fixed tail appended",2.15
YGSFHQQYWLDGKIIAVGVIDILP,protein stability index,"parent: IOH45551_57, c terminus: a fixed tail appended",2.33
NWLGRPSKVLSLQDLCCRTIVSCT [RAB40A WT],protein stability index,"parent: IOH45721_31, c terminus: a fixed tail appended",2.45
YQDMIYAVGGRDDTTELSSAERYN [KLHL20 WT],protein stability index,"parent: IOH45628_85, c terminus: a fixed tail appended",2.4
VVGTPCYISPELCEGKPYNQKSDI,protein stability index,"parent: IOH45357_28, c terminus: a fixed tail appended",2.69
QRITQEQEKKLSFIEALIQQYQEQ,protein stability index,"parent: IOH45956_39, c terminus: a fixed tail appended",2.31
YTSSQKVSPIQIDGAGRTWQDSDT,protein stability index,"parent: IOH51997_54, c terminus: a fixed tail appended",3.33
LNLAMVYRYCCKLNKKLKSYSLSR,protein stability index,"parent: IOH46617_10, c terminus: a fixed tail appended",2.15
SPGHSSAGQEGEDTLRRRLLAPEA,protein stability index,"parent: IOH51997_28, c terminus: a fixed tail appended",4.18
FHLAPARAGHHPNQYATCRLCGRQ,protein stability index,"parent: IOH45853_11, c terminus: a fixed tail appended",1.84
YVQEKRDGLKRRQQLEEELLRAKI [RAD54B WT],protein stability index,"parent: IOH45968_20, c terminus: a fixed tail appended",1.89
FVEKNPTIVNFPITNVDLREYLSE,protein stability index,"parent: IOH45672_78, c terminus: a fixed tail appended",1.94
KASGRFGLLQGTSAETSGGLLICL [SEPHS2 WT],protein stability index,"parent: IOH46138_60, c terminus: a fixed tail appended",2.7
FRCPTCRHEVIMDRHGVYGLQRNL,protein stability index,"parent: IOH45956_13, c terminus: a fixed tail appended",1.95
DGAGRTWQDSDTVKLLVDLELSYG,protein stability index,"parent: IOH51997_56, c terminus: a fixed tail appended",1.82
YAHQPRTADEIPMEPGDIIGVAGN,protein stability index,"parent: IOH44218_86, c terminus: a fixed tail appended",4.04
SLARLQQLLFVIFLLLYLFTLGTN [OR10K2 WT],protein stability index,"parent: IOH46300_4, c terminus: a fixed tail appended",2.15
DVPDLQSVCSCTCYRSQDYGGRSV,protein stability index,"parent: IOH45737_49, c terminus: a fixed tail appended",1.8
FSEPSFITESYQTLHPISSEELLS,protein stability index,"parent: IOH46473_30, c terminus: a fixed tail appended",1.94
FQFASIDVAGNLDYKALSYVITHG,protein stability index,"parent: IOH44370_25, c terminus: a fixed tail appended",2.42
